Assay results taken from IntAct's records for PubMed 28007894.

B1: Serine/threonine/tyrosine-interacting protein (Homo sapiens), Q8WUJ0 (parent)
chain: MEDVKLEFPSLPQCKEDAEEWTYPMRREMQEILPGLFLGPYSSAMKSKLPVLQKHGITHIICIRQNIEANFIKPNFQQLFRYLVLDIADNPVENIIRFFPMTKEFIDGSLQMGGKVLVHGNAGISRSAAFVIAYIMETFGMKYRDAFAYVQERRFCINPNAGFVHQLQEYEAIYLAKLTIQMMSPLQIERSLSVHSGTTGSLKRTHEEEDDFGTMQVATAQNG

Variants of: B1
Conditions: with FBXW7, Q969H0-1
FBXW7, Q969H0-1, sequence (Q969H0 whole entry): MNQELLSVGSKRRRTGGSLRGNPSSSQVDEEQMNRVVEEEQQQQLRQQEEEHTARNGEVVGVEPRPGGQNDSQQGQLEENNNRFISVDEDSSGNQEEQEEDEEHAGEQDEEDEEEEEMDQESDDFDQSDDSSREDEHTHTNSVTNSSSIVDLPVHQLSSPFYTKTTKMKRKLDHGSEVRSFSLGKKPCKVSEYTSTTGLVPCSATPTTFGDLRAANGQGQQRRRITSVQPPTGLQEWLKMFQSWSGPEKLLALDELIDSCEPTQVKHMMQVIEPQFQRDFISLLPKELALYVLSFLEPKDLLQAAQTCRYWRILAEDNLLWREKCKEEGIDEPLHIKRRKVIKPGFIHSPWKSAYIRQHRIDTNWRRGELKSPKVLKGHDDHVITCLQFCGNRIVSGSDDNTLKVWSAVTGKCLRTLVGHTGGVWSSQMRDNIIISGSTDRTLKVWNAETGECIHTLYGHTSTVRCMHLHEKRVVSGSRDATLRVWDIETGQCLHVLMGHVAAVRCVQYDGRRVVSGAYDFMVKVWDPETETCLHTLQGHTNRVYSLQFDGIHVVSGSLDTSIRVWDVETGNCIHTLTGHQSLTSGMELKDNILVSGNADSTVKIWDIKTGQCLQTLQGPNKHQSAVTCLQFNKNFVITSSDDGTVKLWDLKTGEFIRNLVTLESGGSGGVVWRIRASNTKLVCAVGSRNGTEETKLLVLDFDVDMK

| Variant | effect of a mutation on the interaction |
| --- | --- |
| MEDVKLEFPSLPQCKEDAEEWTYPMRREMQEILPGLFLGPYSSAMKSKLPVLQKHGITHIICIRQNIEANFIKPNFQQLFRYLVLDIADNPVENIIRFFPMTKEFIDGSLQMGGKVLVHCNAGISRSAAFVIAYIMETFGMKYRDAFAYVQERRFCINPNAGFVHQLQEYEAIYLAKLTIQMMSPLQIERSLSVHSGTTGSLKRTHEEEDDFGTMQVATAQNG [G120C] | with no effect |
